Data set [1] has as its system MuA transposase in cleaved-donor complex (CDC, WT transpososome) (bacteriophage Mu). The data set is described as follows: fluorescence anisotropy. The note with it: Mg2+, CDC with 3'ddA Mu ends, Anisotropy: purified CDCs diluted in reaction buffer with MgCl2 (+/- DMSO; concentrations, salt and pH not in material), 6 nM Atto565 target DNA, 1 h, room …. A general note: Fluorescence polarisation rises when a labelled molecule tumbles more slowly, as on binding a larger partner.

The test system of data set [2] is MuA delta domain III (catalytic subunits of delta domain III CDC);SinMu chimera (non-catalytic subunits) (bacteriophage Mu;bacteriophage Mu; Sin recombinase (organism not stated)). The data set is described as follows: fluorescence anisotropy. The conditions noted are these: Mg2+, DMSO; CDC with 3'ddA Mu ends; single G:G mismatch at center; Anisotropy: purified CDCs diluted in reaction buffer with MgCl2 (+/- DMSO; concentrations, salt and pH not in material), 6 nM Atto565 target DNA, 1 h, room ….

With target DNA, fully base paired, 35 bp, the Kd in data set [1] (DMSO) came to 29 nM.

With “target DNA with central G:G mismatch, 35 bp”, the dissociation constant (Kd) in data set [2] was found to be 38 nM; in data set [1] (DMSO, Hill coefficient 2.6, single G:G mismatch at center), 15 nM; in data set [1] (no DMSO, Hill coefficient 3.3, single G:G mismatch at center), 15 nM.

The Kd is the free concentration of one partner at which half of the binding sites on the other are occupied at equilibrium, for simple one-to-one binding.
